According to PMC10876215, “Nucleosome conformation dictates the histone code” (eLife, 2024):

How the values were obtained:
[1] = molecular target: H3K4me3K9acK14acK18ac histone peptide (dCypher, biotinylated); assay: AlphaScreen or HTRF; dCypher on the Alpha platform; biotinylated histone peptide (100 nM final) on streptavidin donor beads, 6His-tagged Query titrated and held on Ni-NTA acceptor beads; 50 mM Tris pH 7.5, 50 mM NaCl, 0.01% Tween-20, 0.01% BSA, 0.0004% Poly-L Lysine, 1 mM TCEP; room temperature; relative EC50 (EC50^rel)
[2] = molecular target: H4K5acK8acK12acK16ac histone peptide (dCypher, biotinylated); assay: AlphaScreen or HTRF; dCypher on the Alpha platform; biotinylated histone peptide (100 nM final) on streptavidin donor beads, GST-tagged Query titrated and held on glutathione acceptor beads; 50 mM Tris pH 7.5, 50 mM NaCl, 0.01% Tween-20, 0.01% BSA, 0.0004% Poly-L Lysine, 1 mM TCEP; room temperature; relative EC50 (EC50^rel), not an equilibrium Kd

Row | Substance | fold weaker than for the H3K4me3 peptide [1] [fold] | EC50 [2] [nM]
1 | BPTF 6His-PHD (domain or fragment) | 2 | –
2 | GST-BRD4-BD1 (domain or fragment) | – | 0.7
